Where two headings read alike, the source gives them in different places.
How the values were obtained:
[1] = Temperature- and urea-dependent fluorescence landscapes of fluorescent conjugates (Roche LightCycler); type: binding; parameters: key: y, yes; n, no; details: fluorescent response to urea
Description: We constructed 20 single cysteine mutants in csUBP7, exploring 7 endosteric, 12 peristeric, and 1 allosteric position (FIG. 9). At each position we attached the Prodan-derived fluorophores Acrylodan and Badan, which differ by one methylene group in their thiol-reactive linker. The fluorescent responses of these conjugates was determined initially as a function of urea concentration and temperature (FIG. 10). […] The ligand dependence of the emission spectra shapes was determined for these conjugates (Table 8).
Determination of temperature- and ligand-dependent fluorescence landscapes. […] Urea concentrations were varied from 0-4.8 M in 20 mM KCl, 20 mM MOPS (pH 7.4). […] Temperatures were advanced in 1K steps.
(§1) Ratiometric analysis of urea binding. […] 2
(§2) For a single urea-binding site, the fractional saturation is given by
(§3) [formula] where [L] is the ligand (urea) concentration and Kd the dissociation constant, ^trueKd for ytrue.
To obtain the temperature dependence of the binding reaction, the Kd values of all the individually determined isotherms were fit the Gibbs-Hemholtz equation (Layton and Hellinga, 2010, Biochemistry, 49, 10831-41):
[formula] where ΔGb^•(T) is the standard free energy of binding at 1 M ligand at temperature T,
[formula] Δ^refHb^• and Δ^refSb^• the molar enthalpy and entropy of binding, respectively, at the reference temperature, Tref, and ΔCp,b the heat capacity of the binding reaction.

[2] = Urea titration of emission intensity spectra (Nanodrop3300) with ratiometric analysis, singly labeled conjugates; type: binding; parameters: key to Acrylodan Intensity / Badan Intensity: +, increases in response to urea; −, decreases; 0, no change; key to Badan Dipoles / Acrylodan Dipoles: blue, (maxima <500 nm); g, green (maxima >500 nm); b/g, mixed population; key to Acrylodan Shape / Badan Shape: m, monochromatic; d, dichromatic (i.e. spectral shape changes); 0, no change; details: for Acrylodan Intensity / Badan Intensity: emission intensity change on urea; for Acrylodan Shape / Badan Shape: emission spectrum shape change on urea; for Acrylodan Dipoles / Badan Dipoles: estimated change in populations of major emission bands; for Kd: urea
Excerpt: Determination of emission intensity spectra.
as §1, §2, §3
[formula] where ^appIλ2 and ^satIλ2 are the emission intensities of the monochromatic signal at wavelength λ2 of the ligand-free and ligand-bound protein, respectively.

[3] = csUBP7 Acrylodan conjugate, read-out: Acrylodan ^trueKd
[4] = csUBP7 Badan conjugate, read-out: Badan ^trueKd

Molecule | Response ([1]; Acrylodan conjugate) | Response ([1]; Badan conjugate) | ratiometric response to urea ([2]; Acrylodan and Badan conjugates screened) | Acrylodan Intensity ([2]; csUBP7 Acrylodan conjugate) | Acrylodan Shape ([2]; csUBP7 Acrylodan conjugate) | Acrylodan Dipoles ([2]; csUBP7 Acrylodan conjugate) | Kd [2, 3] | Badan Intensity ([2]; csUBP7 Badan conjugate) | Badan Shape ([2]; csUBP7 Badan conjugate) | Badan Dipoles ([2]; csUBP7 Badan conjugate) | Kd [2, 4]
csUBP7 R95C: csUBP7 95C cysteine mutant (SEQ ID NO: 32), tested as Acrylodan and Badan conjugates (conjugate, Acrylodan or Badan conjugate; csUBP7_95C (95C substitution mutant with signal peptide replaced with M and a GGSHHHHHH at C-terminus, and also comprising a C89A substitution)) MSSSESEKEKSEETIKVGILHSLSGTMSISEVSLKDAELMAIEEINNNGGVLGKKLEPIVEDGASDWPTFAEKAKKLLQKDKVAVIFGAWTSASCKAVLPVVEENNGLLFYPVQYEGLESSPNIFYMGAAPNQQIVPAVKWLFDNGKKRFYLLGSDYVFPRTANKIIKAYLKYLGGVVVGEEYTPLGHTDYSSVINKIKAAKPDVVFNTLNGDSNVAFFKQLKDAGIDANTLPVMSVSIAEEEIKGIGPEYLKGHLVTWNYFQSVDTPENKEFVEKYKKKYGEDRVTDDPIEAAYIGVYLWAKAVEKAGSTDVDKVREAAKGIEFNAPEGPVKIDGDNQHLYKTVRIGEILENGQIRELWKTNKPVKPDPYLKGYEWAQGLSEQGGSHHHHHH | y | y | good ratiometric responses | − | m | b (blue, (maxima <500 nm)) | 300 µM | + | d | g→b | 2200 µM
csUBP7 S30C: csUBP7 30C cysteine mutant (SEQ ID NO: 25), tested as Acrylodan and Badan conjugates (conjugate, Acrylodan or Badan conjugate; csUBP7_30C (30C substitution mutant with signal peptide replaced with M and a GGSHHHHHH at C-terminus, and also comprising a C89A substitution)) MSSSESEKEKSEETIKVGILHSLSGTMSICEVSLKDAELMAIEEINNNGGVLGKKLEPIVEDGASDWPTFAEKAKKLLQKDKVAVIFGAWTSASRKAVLPVVEENNGLLFYPVQYEGLESSPNIFYMGAAPNQQIVPAVKWLFDNGKKRFYLLGSDYVFPRTANKIIKAYLKYLGGVVVGEEYTPLGHTDYSSVINKIKAAKPDVVFNTLNGDSNVAFFKQLKDAGIDANTLPVMSVSIAEEEIKGIGPEYLKGHLVTWNYFQSVDTPENKEFVEKYKKKYGEDRVTDDPIEAAYIGVYLWAKAVEKAGSTDVDKVREAAKGIEFNAPEGPVKIDGDNQHLYKTVRIGEILENGQIRELWKTNKPVKPDPYLKGYEWAQGLSEQGGSHHHHHH | y | y |  | + | d | b/g→b | 5200 µM | + | d | g→b | 300 µM
csUBP7 M27C: csUBP7 27C cysteine mutant (SEQ ID NO: 24), tested as Acrylodan and Badan conjugates (conjugate, Acrylodan or Badan conjugate; csUBP7_27C (27C substitution mutant with signal peptide replaced with M and a GGSHHHHHH at C-terminus, and also comprising a C89A substitution)) MSSSESEKEKSEETIKVGILHSLSGTCSISEVSLKDAELMAIEEINNNGGVLGKKLEPIVEDGASDWPTFAEKAKKLLQKDKVAVIFGAWTSASRKAVLPVVEENNGLLFYPVQYEGLESSPNIFYMGAAPNQQIVPAVKWLFDNGKKRFYLLGSDYVFPRTANKIIKAYLKYLGGVVVGEEYTPLGHTDYSSVINKIKAAKPDVVFNTLNGDSNVAFFKQLKDAGIDANTLPVMSVSIAEEEIKGIGPEYLKGHLVTWNYFQSVDTPENKEFVEKYKKKYGEDRVTDDPIEAAYIGVYLWAKAVEKAGSTDVDKVREAAKGIEFNAPEGPVKIDGDNQHLYKTVRIGEILENGQIRELWKTNKPVKPDPYLKGYEWAQGLSEQGGSHHHHHH | y | y |  | + | m | g (g, green (maxima >500 nm)) | 4600 µM | − | d | g→b/g | 3200 µM
csUBP7 T26C: csUBP7 26C cysteine mutant (SEQ ID NO: 23), tested as Acrylodan and Badan conjugates (conjugate, Acrylodan or Badan conjugate; csUBP7_26C (26C substitution mutant with signal peptide replaced with M and a GGSHHHHHH at C-terminus, and also comprising a C89A substitution)) MSSSESEKEKSEETIKVGILHSLSGCMSISEVSLKDAELMAIEEINNNGGVLGKKLEPIVEDGASDWPTFAEKAKKLLQKDKVAVIFGAWTSASRKAVLPVVEENNGLLFYPVQYEGLESSPNIFYMGAAPNQQIVPAVKWLFDNGKKRFYLLGSDYVFPRTANKIIKAYLKYLGGVVVGEEYTPLGHTDYSSVINKIKAAKPDVVFNTLNGDSNVAFFKQLKDAGIDANTLPVMSVSIAEEEIKGIGPEYLKGHLVTWNYFQSVDTPENKEFVEKYKKKYGEDRVTDDPIEAAYIGVYLWAKAVEKAGSTDVDKVREAAKGIEFNAPEGPVKIDGDNQHLYKTVRIGEILENGQIRELWKTNKPVKPDPYLKGYEWAQGLSEQGGSHHHHHH | y | y |  | − | d | b→g | 90 µM | − | m | b/g | 300 µM
bsUBP3 T77C: bsUBP3 77C cysteine mutant (SEQ ID NO: 44), tested as Acrylodan conjugate (conjugate, Acrylodan conjugate; bsUBP3_77C (77C substitution mutant with signal peptide replaced with M and a GGSHHHHHH at C-terminus)) MKVGILHSLSGTMAISEVSVHDAELIAIQEINQKGGVLGKKLEPVVEDGASDWPTYAEKMRKLLQQDKVAAVFGGWCSASRKAMLPVVEQNNGLLFYPVQYEGMETSPNIFYTGATTNQQIVPAVDWLLKNKGKKFFLIGSDYVFPRTANKIIKAQVKAGGGEIAGEEYTPLGHTNYSTLVSKIKEKQPDVIFNTLNGDSNVAFFKQLKDAGISADDMPVMSASVAEEEIRGIGPDVLKGHYAVWNYFQTTNTSENQTFVKNYKKMNGDSRVTSDPIEAGYNAVYLWAAAVEKAKSFDVDKVKKAADGISFKAPGGTVKIDGDTQHLYKTVRIGQITGDGQFKEVWNSGEPVKPDPYLKTYDWAKGLSKGGSHHHHHH | y |  |  |  |  |  |  |  |  |  | 
bsUBP3 A79C: bsUBP3 79C cysteine mutant (SEQ ID NO: 46), tested as Acrylodan conjugate (conjugate, Acrylodan conjugate; bsUBP3_79C (79C substitution mutant with signal peptide replaced with M and a GGSHHHHHH at C-terminus)) MKVGILHSLSGTMAISEVSVHDAELIAIQEINQKGGVLGKKLEPVVEDGASDWPTYAEKMRKLLQQDKVAAVFGGWTSCSRKAMLPVVEQNNGLLFYPVQYEGMETSPNIFYTGATTNQQIVPAVDWLLKNKGKKFFLIGSDYVFPRTANKIIKAQVKAGGGEIAGEEYTPLGHTNYSTLVSKIKEKQPDVIFNTLNGDSNVAFFKQLKDAGISADDMPVMSASVAEEEIRGIGPDVLKGHYAVWNYFQTTNTSENQTFVKNYKKMNGDSRVTSDPIEAGYNAVYLWAAAVEKAKSFDVDKVKKAADGISFKAPGGTVKIDGDTQHLYKTVRIGQITGDGQFKEVWNSGEPVKPDPYLKTYDWAKGLSKGGSHHHHHH | y |  |  |  |  |  |  |  |  |  | 
bsUBP3 L172C: bsUBP3 172C cysteine mutant (SEQ ID NO: 48), tested as Acrylodan conjugate (conjugate, Acrylodan conjugate; bsUBP3_172C (172C substitution mutant with signal peptide replaced with M and a GGSHHHHHH at C-terminus)) MKVGILHSLSGTMAISEVSVHDAELIAIQEINQKGGVLGKKLEPVVEDGASDWPTYAEKMRKLLQQDKVAAVFGGWTSASRKAMLPVVEQNNGLLFYPVQYEGMETSPNIFYTGATTNQQIVPAVDWLLKNKGKKFFLIGSDYVFPRTANKIIKAQVKAGGGEIAGEEYTPCGHTNYSTLVSKIKEKQPDVIFNTLNGDSNVAFFKQLKDAGISADDMPVMSASVAEEEIRGIGPDVLKGHYAVWNYFQTTNTSENQTFVKNYKKMNGDSRVTSDPIEAGYNAVYLWAAAVEKAKSFDVDKVKKAADGISFKAPGGTVKIDGDTQHLYKTVRIGQITGDGQFKEVWNSGEPVKPDPYLKTYDWAKGLSKGGSHHHHHH | y |  |  |  |  |  |  |  |  |  | 
